# Experimental data taken from US20240287172A1 (SCIRHOM, published 2024).
# B1: chimeric antibody 34 (antibody, V domains shown)
# VH: QVTLKESGPGILQPSQTLSLTCSFSGFSLSTFSLGVGWIRQSSGKGLEWLAHIWWDDEKYYNPALKSRLTISKDTSKNQVFLKIANVDAADTATYYCARAYYSKSYYALDYWGQGTSVTVSS
# VL: DIQMTQSPSSLSASLGERVSLTCRASQEISGYLSWLQQKPDGTIKRLIYAASTLDSGVPKRFSGSRSGSDYSLAISSLESEDFADYYCLQYANFPFTFGSGTKLEIK
# B2: chimeric antibody 16 (antibody, V domains shown)
# VH: QVTLKESGPGILQPSQTLSLTCSFSGFSLSTFALGVGWIRQPSGRGLEWLAHIWWDDDKYYNPALKSRLTISKDTSKNHVFLKIANVDTADTATYYCARITTYYYGMDYWGQGTSVTVSS
# VL: DIVLSQSPATLSVTPGDSVSLFCRASQSIGNHLHWYQQESHASPRLLIKYASQSISGIPSRFSGSGSGTDFTLSINSVETEDFGMYFCQQSYNWPLTFGAGTKLELK
# notes: chimeric version of clone #16, made in CHO cells, detected with anti-human IgG; also called ch16; chl6 (so in the source)
# B3: chimeric antibody 22 (antibody, V domains shown)
# VH: QVTLKESGPGILQPSQTLSLTCSFSGFSLSTFGMGVGWIRQPSGKGLEWLAHIWWDDEKYYNSALKSRLTISKATSKNQVFLKIANVDTADTATYYCARISNYGSNYWYFNVWGTGTTVTVSS
# VL: QVVLTQSPALMSASPGEKVTMTCSAGSSVSYMYWYQQKPGSSPRVLIYDTSNLASGVPARFTGSGSGTSYSLTISRMEAEDAATYYCQQWNSYPLTFGAGTKLELK
# B4: chimeric antibody 44 (antibody, V domains shown)
# VH: QVTLKESGPGILQPSQTLSLTCSFSGFSLSTFGMGVGWIRQPSEKGLEWLAHIWWDDDKYYNPALKSRLTISKDTSKNQIFLKITNVDTAETATYYCSRIGNYGSNYWYFDVWGTGTTVTVSS
# VL: QIVLTQSPAVMSASPGEKVTMTCTASSSVYYMYWYQQTPGSSPRLLIYDTSNLASGVPVRFSGSGSGTSYSLTISRMEAEDAATYYCQQWNTYPLTFGAGTKLELK
# B5: chimeric antibody 42 (antibody, V domains shown)
# VH: QVTLKESGPGILQPSQTLSLTCSLSGFSLSTFGRGVGWIRQPSGKGLEWLAHIWWDDEKYYNPALKSRLTISKDTSKNQVFLRIANVDTADTATYYCARIQNYGSNYWYFDVWGTGTTVTVSS
# VL: LIVLTQSPAIMSASPGEKVTMTCGATSRISYMFWYQQKPGSSPRVLIYDTSNLASGVPVRFSGSGSGTSYSLTISRVEAEDVATYYCQQWNSYPLTFGAGTKLELK
# How the values were obtained:
# [1] = target: T1, human iRhom2, endogenously expressed (human, UniProt Q6PJF5 1-856); assay: cell-based or functional assay
# T1 sequence: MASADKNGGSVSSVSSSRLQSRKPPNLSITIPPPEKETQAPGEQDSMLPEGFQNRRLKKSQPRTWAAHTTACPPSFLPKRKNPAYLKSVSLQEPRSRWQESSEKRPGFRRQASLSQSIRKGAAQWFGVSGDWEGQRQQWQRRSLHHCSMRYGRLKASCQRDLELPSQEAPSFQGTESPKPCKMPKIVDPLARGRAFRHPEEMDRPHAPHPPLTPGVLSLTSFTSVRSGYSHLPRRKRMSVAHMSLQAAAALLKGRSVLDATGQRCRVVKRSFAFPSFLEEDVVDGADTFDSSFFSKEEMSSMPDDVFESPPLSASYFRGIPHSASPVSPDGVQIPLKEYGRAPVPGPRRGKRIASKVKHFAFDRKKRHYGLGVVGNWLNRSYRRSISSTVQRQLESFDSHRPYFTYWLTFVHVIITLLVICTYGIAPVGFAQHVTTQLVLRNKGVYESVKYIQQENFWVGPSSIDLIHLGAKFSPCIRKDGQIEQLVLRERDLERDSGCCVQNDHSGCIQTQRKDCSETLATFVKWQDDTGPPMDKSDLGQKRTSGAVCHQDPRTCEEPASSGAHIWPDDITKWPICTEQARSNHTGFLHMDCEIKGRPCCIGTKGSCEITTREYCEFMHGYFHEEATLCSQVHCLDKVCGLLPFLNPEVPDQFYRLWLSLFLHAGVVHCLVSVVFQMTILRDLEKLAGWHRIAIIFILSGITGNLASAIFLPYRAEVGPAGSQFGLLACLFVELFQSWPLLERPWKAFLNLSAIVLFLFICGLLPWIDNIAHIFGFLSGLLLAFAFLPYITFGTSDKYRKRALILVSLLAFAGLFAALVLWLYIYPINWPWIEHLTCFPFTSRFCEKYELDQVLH
# [2] = target: T2, dog iRhom2 full length wild type, T7-tagged (dog, UniProt Q00M95 1-827); assay: FACS on MEF-DKO-iR2 Dog cells, 3 µg/ml
# T2 construct: whole, on cells; on MEF-DKO cells; also called Dog-iR2-FL-WT-T7
# T2 sequence: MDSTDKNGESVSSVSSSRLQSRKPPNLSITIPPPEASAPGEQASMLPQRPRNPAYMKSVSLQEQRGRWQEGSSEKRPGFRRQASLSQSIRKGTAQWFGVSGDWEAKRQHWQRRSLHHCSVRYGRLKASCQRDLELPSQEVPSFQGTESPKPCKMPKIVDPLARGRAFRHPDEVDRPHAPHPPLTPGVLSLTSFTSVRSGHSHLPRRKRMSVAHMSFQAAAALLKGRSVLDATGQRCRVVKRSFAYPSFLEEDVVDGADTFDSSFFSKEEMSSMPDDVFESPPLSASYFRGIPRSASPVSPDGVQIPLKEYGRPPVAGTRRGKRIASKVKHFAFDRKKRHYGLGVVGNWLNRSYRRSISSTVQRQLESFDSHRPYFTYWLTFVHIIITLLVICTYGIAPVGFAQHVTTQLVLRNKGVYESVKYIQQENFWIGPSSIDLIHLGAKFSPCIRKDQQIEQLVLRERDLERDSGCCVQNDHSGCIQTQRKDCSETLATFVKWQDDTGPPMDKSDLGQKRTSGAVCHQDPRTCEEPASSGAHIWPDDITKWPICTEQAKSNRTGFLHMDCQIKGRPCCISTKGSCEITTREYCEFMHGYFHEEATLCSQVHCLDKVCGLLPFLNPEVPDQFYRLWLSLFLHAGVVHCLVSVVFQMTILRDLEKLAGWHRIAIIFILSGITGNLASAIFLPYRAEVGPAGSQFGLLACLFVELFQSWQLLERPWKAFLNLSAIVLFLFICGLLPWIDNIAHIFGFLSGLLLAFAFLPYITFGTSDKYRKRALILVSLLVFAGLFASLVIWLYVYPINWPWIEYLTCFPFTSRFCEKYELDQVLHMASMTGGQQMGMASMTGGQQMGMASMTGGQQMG
# Method: In brief, immortalized MEF-DKO-EV control cells, MEF-DKO-rhesus-iR2-FL-WT-T7 cells, MEF-DKO-cyno-iR2-FL-WT-T7 cells, MEF-DKO-dog-iR2-FL-WT-T7 cells and MEF-DKO-rabbit-iR2-FL-WT-T7 cells, as well as their respective iRhom1 counterparts, were harvested with 10 mM EDTA in PBS, washed and resuspended in FACS buffer (PBS, 3% FBS, 0.05% sodium azide), and seeded in Nunc U-bottom 96-well plates (Thermo Fisher Scientific, USA) at approximately 3×10⁵ cells per well. To pellet cells and remove supernatants, the plates were centrifuged at 1,500 rpm and 4° C. for 3 minutes. For primary staining, cells were resuspended in 100 μl per well of either FACS buffer alone (controls), mouse monoclonal anti-T7 IgG (Merck Millipore, USA) at 3 μg/ml FACS buffer or the antibodies of the invention also at 3 μg/ml FACS buffer and incubated on ice for 1 hour.
# Afterwards, plates were centrifuged at 1,500 rpm and 4° C. for 3 minutes and washed twice with 200 μl per well of FACS buffer. For secondary staining, cells were spun down and resuspended in 100 μl per well of PE-conjugated goat anti-mouse IgG F(ab′)2 detection fragment (Dianova, Germany) diluted 1:100 in FACS buffer. Protected from light, the cell suspensions were incubated on ice for 1 hour. […] Finally, cells were resuspended in 150 μl per well of FACS buffer and analyzed using a BD Accuri™ C6 Plus flow cytometer (Becton Dickinson, Germany).
# [3] = target: T3, human iRhom1, endogenously expressed (human, UniProt Q96CC6 1-855); assay: FACS on RH-30 cells (iRhom1-positive, not iRhom2-positive)
# T3 construct: also called iRhom1 on RH-30 cells
# T3 sequence: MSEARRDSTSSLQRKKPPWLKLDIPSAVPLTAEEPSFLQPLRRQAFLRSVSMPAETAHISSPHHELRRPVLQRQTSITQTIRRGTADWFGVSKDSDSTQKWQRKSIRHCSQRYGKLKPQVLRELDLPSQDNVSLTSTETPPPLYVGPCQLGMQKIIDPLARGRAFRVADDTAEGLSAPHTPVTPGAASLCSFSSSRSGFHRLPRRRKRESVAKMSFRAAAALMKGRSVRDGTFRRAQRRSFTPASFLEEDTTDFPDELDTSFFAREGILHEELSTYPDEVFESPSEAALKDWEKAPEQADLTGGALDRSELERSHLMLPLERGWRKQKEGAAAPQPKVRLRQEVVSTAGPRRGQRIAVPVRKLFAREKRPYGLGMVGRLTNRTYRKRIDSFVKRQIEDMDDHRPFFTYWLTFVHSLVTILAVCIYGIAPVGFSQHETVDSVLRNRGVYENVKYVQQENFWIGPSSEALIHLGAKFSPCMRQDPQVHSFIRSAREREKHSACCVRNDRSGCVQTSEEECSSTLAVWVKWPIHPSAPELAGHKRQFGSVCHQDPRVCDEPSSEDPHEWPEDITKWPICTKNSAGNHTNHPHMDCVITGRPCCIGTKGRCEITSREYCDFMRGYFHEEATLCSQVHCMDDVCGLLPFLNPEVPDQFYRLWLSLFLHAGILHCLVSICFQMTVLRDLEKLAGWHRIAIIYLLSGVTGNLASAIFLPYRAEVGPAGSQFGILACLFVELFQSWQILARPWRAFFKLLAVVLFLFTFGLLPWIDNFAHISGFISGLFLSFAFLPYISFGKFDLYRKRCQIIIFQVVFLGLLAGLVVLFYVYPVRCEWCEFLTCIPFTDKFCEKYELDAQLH
Binder,"LPS-induced TNFα release from PBMCs of rheumatoid arthritis patients, percent inhibition, 1 µg/ml, chimeric antibody [1] [%]","PMA-induced HB-EGF release from PBMCs of rheumatoid arthritis patients, percent inhibition, 1 µg/ml, chimeric antibody [1] [%]","PMA-induced HB-EGF release from THP-1 cells, percent inhibition, 3 µg/ml [1] [%]","PMA-induced HB-EGF release from U-937 cells, percent inhibition [1] [%]","PMA-induced IL-6R release from PBMCs of rheumatoid arthritis patients, percent inhibition, 1 µg/ml, chimeric antibody [1] [%]","PMA-induced IL-6R release from U-937 cells, percent inhibition, 3 µg/ml [1] [%]","PMA-induced TNFα release from U-937 cells, percent inhibition, 3 µg/ml [1] [%]",binding result [2],binding result [3]
B1,66.6,30.6,76.1,98.1,45.6,82.8,87.4,–,–
B2,83.6,66,73.6,101,72.3,84.3,93.7,binds,no binding (tested: 3 µg/ml)
B3,76.5,54.7,81.9,103,61.1,85.6,96.5,–,–
B4,70.2,37.8,70.7,99.2,53.1,85.2,89.2,–,–
B5,82.1,76.1,80.8,103,73.5,91.8,96.5,–,–
